Patent US20150344580A1 (MSM PROTEIN TECHNOLOGIES, published 2015)

T1: human chemokine receptor CCR7 (human, UniProt P32248 25-378)
T1 sequence: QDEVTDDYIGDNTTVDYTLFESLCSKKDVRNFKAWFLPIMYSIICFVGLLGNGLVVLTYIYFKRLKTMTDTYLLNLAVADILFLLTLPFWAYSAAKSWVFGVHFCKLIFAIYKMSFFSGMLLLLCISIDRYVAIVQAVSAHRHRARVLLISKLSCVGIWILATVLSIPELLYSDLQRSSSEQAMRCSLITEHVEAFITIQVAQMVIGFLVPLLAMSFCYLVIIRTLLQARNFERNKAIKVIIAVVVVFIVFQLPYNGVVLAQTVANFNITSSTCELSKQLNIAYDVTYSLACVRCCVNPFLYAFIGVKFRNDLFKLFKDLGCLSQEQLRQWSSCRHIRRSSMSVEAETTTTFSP

T2: human CD22 (human, UniProt P20273 20-847)
T2 sequence (looked up): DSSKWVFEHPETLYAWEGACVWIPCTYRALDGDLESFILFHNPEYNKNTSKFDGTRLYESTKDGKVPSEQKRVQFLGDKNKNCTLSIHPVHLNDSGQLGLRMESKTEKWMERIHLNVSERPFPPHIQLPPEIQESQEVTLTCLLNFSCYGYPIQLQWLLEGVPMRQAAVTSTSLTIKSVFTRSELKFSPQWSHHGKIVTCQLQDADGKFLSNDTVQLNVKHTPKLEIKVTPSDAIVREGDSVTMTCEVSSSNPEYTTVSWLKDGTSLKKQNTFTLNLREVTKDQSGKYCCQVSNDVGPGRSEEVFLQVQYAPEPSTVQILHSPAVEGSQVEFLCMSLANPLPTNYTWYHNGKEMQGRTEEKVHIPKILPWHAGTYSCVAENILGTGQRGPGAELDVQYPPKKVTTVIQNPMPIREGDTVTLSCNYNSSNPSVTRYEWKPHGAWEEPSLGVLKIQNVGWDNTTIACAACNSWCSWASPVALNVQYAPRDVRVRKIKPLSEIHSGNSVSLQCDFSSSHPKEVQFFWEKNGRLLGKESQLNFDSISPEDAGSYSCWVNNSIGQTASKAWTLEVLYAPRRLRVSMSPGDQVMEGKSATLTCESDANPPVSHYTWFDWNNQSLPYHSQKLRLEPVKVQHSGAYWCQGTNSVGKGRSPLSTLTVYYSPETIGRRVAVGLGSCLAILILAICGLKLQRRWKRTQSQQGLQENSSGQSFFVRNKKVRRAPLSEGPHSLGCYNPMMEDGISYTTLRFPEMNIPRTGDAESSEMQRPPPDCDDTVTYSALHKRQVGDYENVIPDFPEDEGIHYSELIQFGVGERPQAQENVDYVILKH


What was measured:
[1] = target: T1, human chemokine receptor CCR7; test: cell-based or functional assay
[2] = target: T1, human chemokine receptor CCR7; test: flow cytometry titration on CCR7 over-expressing cells (direct binding, printed as IC50)
human CD22 = target: T2, human CD22; test: cell-based or functional assay
[3] = target: T1, human chemokine receptor CCR7; test: IgG1 of Table 16 on human CCR7-expressing cells
[4] = target: T1, human chemokine receptor CCR7; test: flow cytometry titration, CHO-human CCR7 cells, anti-human Fc-PE
Protocol: The affinity of IgG1 antibodies to human CCR7 was evaluated by measuring mean fluorescence value (MFI) of cells expressing CCR7 in the presence of varying concentration of antibody in question, upon staining of bound to the cells antibodies with a commercial anti-human antibody-PE conjugate. The data of such experiments are depicted in FIGS. 9, 10, and 11. In these experiments binding of some antibodies to parental cells or cells expressing mouse CCR7 was also quantitatively characterized by obtaining EC₅₀ value (a concentration of IgG1 at which half-maximum MFI is achieved) for each curve using the SoftMaxPro5 program.

Row | Binder | binding result [3] | also measured
1 | MSM R707 in IgG4 format (antibody, also called IgG4 R707; IgG4 formatted MSM R707) heavy: EVQLLESGGGLVQPGGSLRLSCAASGFTFSNYAIHWVRQAPGKGLEWVSAITPRGGYTYYADSVKGRFTISRDNSKNTLYLQMNSLRAEDTAVYYCARGLTMMYTPGMDYWGQGTLVTVSSASTKGPSVFPLAPCSRSTSESTAALGCLVKDYFPEPVTVSWNSGALTSGVHTFPAVLQSSGLYSLSSVVTVPSSSLGTKTYTCNVDHKPSNTKVDKRVESKYGPPCPSCPAPEFLGGPSVFLFPPKPKDTLMISRTPEVTCVVVDVSQEDPEVQFNWYVDGVEVHNAKTKPREEQFNSTYRVVSVLTVLHQDWLNGKEYKCKVSNKGLPSSIEKTISKAKGQPREPQVYTLPPSQEEMTKNQVSLTCLVKGFYPSDIAVEWESNGQPENNYKTTPPVLDSDGSFFLYSRLTVDKSRWQEGNVFSCSVMHEALHNHYTQKSLSLSPGK light: not shown |  | IC50 of inhibition of Ca-flux induced by 18 nM CCL19, Chem-1 CCR7h cells [1]: ~20 nM; IC50 [2]: 4.9 to 7.6 nM
2 | mouse anti-human CD22 monoclonal antibody (antibody, V domains shown) VH: QVQLQQSGAELVKPGASVKMSCKASGYTFTSYWLHWIKQRPGQGLEWIGYINPRNDYTEYNQKFKDKATLTADKSSSTAYMQLSSLTSEDSAVYYCARRDITTFYWGQGTTLTVSS VL: DIQLTQSPSSLAVSAGENVTMSCKSSQSVLYSANHKNYLAWYQQKPGQSPKLLIYWASTRESGVPDRFTGSGSGTDFTLTISRVQVEDLAIYYCHQYLSSWTFGGGTKLEIK |  | EC50 of cell killing with mouse Fab-ZAP, CLL-AAT cells (human CD22): 0.06 nM; EC50 of cell killing with mouse Fab-ZAP, JVM-13 cells (human CD22): 0.5 nM
3 | R707MSF (MSM-R707 HC CDR3 mutant, IgG1) (antibody, V domains shown, IgG1) VH: EVQLLESGGGLVQPGGSLRLSCAASGFTFSNYAIHWVRQAPGKGLEWVSAITPRGGYTYYADSVKGRFTISRDNSKNTLYLQMNSLRAEDTAVYYCARGLTMSYTPGFDYWGQGTLVTVSS VL: not shown | binds | 
4 | R707LMF (MSM-R707 HC CDR3 mutant, IgG1) (antibody, V domains shown, IgG1) VH: EVQLLESGGGLVQPGGSLRLSCAASGFTFSNYAIHWVRQAPGKGLEWVSAITPRGGYTYYADSVKGRFTISRDNSKNTLYLQMNSLRAEDTAVYYCARGLTLMYTPGFDYWGQGTLVTVSS VL: not shown | binds | 
5 | R707MTF (MSM-R707 HC CDR3 mutant, IgG1) (antibody, V domains shown, IgG1) VH: EVQLLESGGGLVQPGGSLRLSCAASGFTFSNYAIHWVRQAPGKGLEWVSAITPRGGYTYYADSVKGRFTISRDNSKNTLYLQMNSLRAEDTAVYYCARGLTMTYTPGFDYWGQGTLVTVSS VL: not shown | binds | 
6 | R707WMF (MSM-R707 HC CDR3 mutant, IgG1) (antibody, V domains shown, IgG1) VH: EVQLLESGGGLVQPGGSLRLSCAASGFTFSNYAIHWVRQAPGKGLEWVSAITPRGGYTYYADSVKGRFTISRDNSKNTLYLQMNSLRAEDTAVYYCARGLTWMYTPGFDYWGQGTLVTVSS VL: not shown | binds | 
7 | R707TMF (MSM-R707 HC CDR3 mutant, IgG1) (antibody, V domains shown, IgG1) VH: EVQLLESGGGLVQPGGSLRLSCAASGFTFSNYAIHWVRQAPGKGLEWVSAITPRGGYTYYADSVKGRFTISRDNSKNTLYLQMNSLRAEDTAVYYCARGLTTMYTPGFDYWGQGTLVTVSS VL: not shown | binds | 
8 | R707MQF (MSM-R707 HC CDR3 mutant, IgG1) (antibody, V domains shown, IgG1) VH: EVQLLESGGGLVQPGGSLRLSCAASGFTFSNYAIHWVRQAPGKGLEWVSAITPRGGYTYYADSVKGRFTISRDNSKNTLYLQMNSLRAEDTAVYYCARGLTMQYTPGFDYWGQGTLVTVSS VL: not shown | binds | 
9 | R707MLF (MSM-R707 HC CDR3 mutant, IgG1) (antibody, V domains shown, IgG1) VH: EVQLLESGGGLVQPGGSLRLSCAASGFTFSNYAIHWVRQAPGKGLEWVSAITPRGGYTYYADSVKGRFTISRDNSKNTLYLQMNSLRAEDTAVYYCARGLTMLYTPGFDYWGQGTLVTVSS VL: not shown | binds | 
10 | MSM-R707BR (fully human anti-human CCR7 antibody, IgG1) (antibody, V domains shown, IgG1 format; HC CDR3 derivative of MSM-R707) VH: EVQLLESGGGLVQPGGSLRLSCAASGFTFSNYAIHWVRQAPGKGLEWVSAITPRGGYTYYADSVKGRFTISRDNSKNTLYLQMNSLRAEDTAVYYCARGLTRSYTPGFDYWGQGTLVTVSS VL: not shown |  | EC50 [4]: 1.9 nM
11 | R707KMF (MSM-R707 HC CDR3 mutant, IgG1) (antibody, V domains shown, IgG1) VH: EVQLLESGGGLVQPGGSLRLSCAASGFTFSNYAIHWVRQAPGKGLEWVSAITPRGGYTYYADSVKGRFTISRDNSKNTLYLQMNSLRAEDTAVYYCARGLTKMYTPGFDYWGQGTLVTVSS VL: not shown | binds | 
12 | R707MGF (MSM-R707 HC CDR3 mutant, IgG1) (antibody, V domains shown, IgG1) VH: EVQLLESGGGLVQPGGSLRLSCAASGFTFSNYAIHWVRQAPGKGLEWVSAITPRGGYTYYADSVKGRFTISRDNSKNTLYLQMNSLRAEDTAVYYCARGLTMGYTPGFDYWGQGTLVTVSS VL: not shown | binds | 
13 | R707IMF (MSM-R707 HC CDR3 mutant, IgG1) (antibody, V domains shown, IgG1) VH: EVQLLESGGGLVQPGGSLRLSCAASGFTFSNYAIHWVRQAPGKGLEWVSAITPRGGYTYYADSVKGRFTISRDNSKNTLYLQMNSLRAEDTAVYYCARGLTIMYTPGFDYWGQGTLVTVSS VL: not shown | binds | 
14 | R707SMF (MSM-R707 HC CDR3 mutant, IgG1) (antibody, V domains shown, IgG1) VH: EVQLLESGGGLVQPGGSLRLSCAASGFTFSNYAIHWVRQAPGKGLEWVSAITPRGGYTYYADSVKGRFTISRDNSKNTLYLQMNSLRAEDTAVYYCARGLTSMYTPGFDYWGQGTLVTVSS VL: not shown | binds | 
15 | MSM-R707BL (fully human anti-human CCR7 antibody, IgG1) (antibody, V domains shown, IgG1 format; HC CDR3 derivative of MSM-R707) VH: EVQLLESGGGLVQPGGSLRLSCAASGFTFSNYAIHWVRQAPGKGLEWVSAITPRGGYTYYADSVKGRFTISRDNSKNTLYLQMNSLRAEDTAVYYCARGLTLSYTPGFDYWGQGTLVTVSS VL: not shown |  | EC50 [4]: 2.6 nM

Further lines, with some results ahead:

Row | binding result [3] | Binder | also measured
16 | binds | R707RMF (MSM-R707 HC CDR3 mutant, IgG1) (antibody, V domains shown, IgG1) VH: EVQLLESGGGLVQPGGSLRLSCAASGFTFSNYAIHWVRQAPGKGLEWVSAITPRGGYTYYADSVKGRFTISRDNSKNTLYLQMNSLRAEDTAVYYCARGLTRMYTPGFDYWGQGTLVTVSS VL: not shown | 
17 | binds | R707MVF (MSM-R707 HC CDR3 mutant, IgG1) (antibody, V domains shown, IgG1) VH: EVQLLESGGGLVQPGGSLRLSCAASGFTFSNYAIHWVRQAPGKGLEWVSAITPRGGYTYYADSVKGRFTISRDNSKNTLYLQMNSLRAEDTAVYYCARGLTMVYTPGFDYWGQGTLVTVSS VL: not shown | 
18 | binds | R707MAF (MSM-R707 HC CDR3 mutant, IgG1) (antibody, V domains shown, IgG1) VH: EVQLLESGGGLVQPGGSLRLSCAASGFTFSNYAIHWVRQAPGKGLEWVSAITPRGGYTYYADSVKGRFTISRDNSKNTLYLQMNSLRAEDTAVYYCARGLTMAYTPGFDYWGQGTLVTVSS VL: not shown | 
19 | binds | R707FMF (MSM-R707 HC CDR3 mutant, IgG1) (antibody, V domains shown, IgG1) VH: EVQLLESGGGLVQPGGSLRLSCAASGFTFSNYAIHWVRQAPGKGLEWVSAITPRGGYTYYADSVKGRFTISRDNSKNTLYLQMNSLRAEDTAVYYCARGLTFMYTPGFDYWGQGTLVTVSS VL: not shown | 
20 | binds | R707NMF (MSM-R707 HC CDR3 mutant, IgG1) (antibody, V domains shown, IgG1) VH: EVQLLESGGGLVQPGGSLRLSCAASGFTFSNYAIHWVRQAPGKGLEWVSAITPRGGYTYYADSVKGRFTISRDNSKNTLYLQMNSLRAEDTAVYYCARGLTNMYTPGFDYWGQGTLVTVSS VL: not shown | 
21 | binds | R707MRF (MSM-R707 HC CDR3 mutant, IgG1) (antibody, V domains shown, IgG1) VH: EVQLLESGGGLVQPGGSLRLSCAASGFTFSNYAIHWVRQAPGKGLEWVSAITPRGGYTYYADSVKGRFTISRDNSKNTLYLQMNSLRAEDTAVYYCARGLTMRYTPGFDYWGQGTLVTVSS VL: not shown | 
22 | binds | R707MPF (MSM-R707 HC CDR3 mutant, IgG1) (antibody, V domains shown, IgG1) VH: EVQLLESGGGLVQPGGSLRLSCAASGFTFSNYAIHWVRQAPGKGLEWVSAITPRGGYTYYADSVKGRFTISRDNSKNTLYLQMNSLRAEDTAVYYCARGLTMPYTPGFDYWGQGTLVTVSS VL: not shown | 
